This is an account of results in patent publication US20190055314A1 (ADAGENE, published 2019).

In experiment [1] the target is T1, human CD137-His6 (Sino Biological #10041-H08H) (human, UniProt Q07011 24-186).
T1 construct: Bought; also called human CD137 protein; not shown: His6 tag
Nature of the experiment: SPR Biacore, IgG. In general terms: In SPR one partner is held on a chip, and binding of the other changes the refractive index at the surface.

The target in experiment [2] is T2, mouse CD137 protein (Biacore) (mouse, UniProt P20334 24-178, limits assumed).
T2 construct: Construct used as SPR analyte not described
T2 sequence: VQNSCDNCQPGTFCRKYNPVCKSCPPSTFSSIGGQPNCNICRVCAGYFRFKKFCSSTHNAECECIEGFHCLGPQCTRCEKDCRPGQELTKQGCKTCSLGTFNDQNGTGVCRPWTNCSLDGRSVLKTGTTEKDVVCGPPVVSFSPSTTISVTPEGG
The experiment is described as follows: SPR Biacore.

For experiment [3], the target named is T3, mouse CD137 fused with human FC fragment (mouse, UniProt P20334 24-178, limits assumed).
T3 construct: also called mouse CD137-Fc; not shown: human Fc fragment
T3 sequence: T2 sequence
Nature of the experiment: ELISA, coated CD137-Fc.

Experiment [4] addresses T4, full-length mouse CD137 on the cell surface (mouse, UniProt P20334 24-178).
T4 sequence: T2 sequence
The experiment is described as follows: flow cytometry, yeast display [Cont.]. (In flow cytometry, cells or beads pass a laser one at a time.)

The target of the next experiment is T5, Hu_CRD3 (human, limits assumed).
T5 construct: also called human CD137 CRD3
T5 chain: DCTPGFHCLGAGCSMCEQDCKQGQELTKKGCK
Nature of the experiment: flow cytometry, yeast display [Cont.].

In experiment [5] the target is T6, rat CD137 on the cell surface (rat, UniProt Q4W8J3 24-258).
T6 sequence: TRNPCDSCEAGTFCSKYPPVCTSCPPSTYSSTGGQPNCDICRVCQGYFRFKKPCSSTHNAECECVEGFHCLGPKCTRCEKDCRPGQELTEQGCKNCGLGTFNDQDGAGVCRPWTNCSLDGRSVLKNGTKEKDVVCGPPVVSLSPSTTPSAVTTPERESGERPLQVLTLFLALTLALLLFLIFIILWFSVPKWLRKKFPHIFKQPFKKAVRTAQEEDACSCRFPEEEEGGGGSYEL
Nature of the experiment: flow cytometry, HEK293F cells expressing CD137.

The target of experiment [6] is T4, full-length mouse CD137 on the cell …. The experiment is described as follows: flow cytometry, HEK293F cells expressing CD137 or mutant.

Positions count from the first letter of the chain named.

B1: AG10081 (antibody, human IgG4 S228P, kappa, V domains shown)
VH: EVQLVESGGGLVQPGGSLRLSCAASGYSISSGHYWGWIRQAPGKGLEWLALIDWYGDKYYSTSLKSRLTISRDNSKNTLYLQLNSLRAEDTAVYYCARSDYYGSHFDYWGQGTLVTVSS
VL: DIQLTQSPSSLSASVGDRVTITCRASESVDFDGFSFLAWYQQKPGKAPKLLIYDASNLETGVPSRFSGSGSGTDFTLTISSLQPEDFATYYCQQYDTLPRTFGQGTKVEIKR
notes: also called IgG of Fab 5299
As usually defined, the Kd is the equilibrium constant for the complex coming apart. Low values mean higher affinity, high ones lower affinity. What is called koff is the rate constant with which the complex falls apart. A higher koff goes with fast dissociation. The term kon denotes a measure of how fast the partners come together. High values mean faster complex formation, low ones slower complex formation. Turning to B1, in experiment [1], the dissociation constant (Kd) was found to be 6.9 nM, the koff amounted to 0.0017 s⁻¹ and the kon worked out at 240000 M⁻¹ s⁻¹.

B2: AG10082 (antibody, human IgG4 S228P, kappa, V domains shown)
VH: EVQLVESGGGLVQPGGSLRLSCAASGYTFSNYWIHWVRQAPGKGLEWVSYISGDGDTTYYADSVKGRFTISRDNSKNTLYLQLNSLRAEDTAVYYCAREGSTTVAGDWFAYWGQGTLVTVSS
VL: DIQLTQSPSSLSASVGDRVTITCRASQGIGSFLGWYQQKPGKAPKLLIYDASSLESGVPSRFSGSGSGTDFTLTISSLQPEDFATYYCQQYYSLVTFGQGTKVEIKR
notes: also called IgG of Fab 5300
With B2, in experiment [1], the dissociation constant Kd was 13 nM, the koff was found to be 0.0072 s⁻¹ and the kon came to 560000 M⁻¹ s⁻¹.

B3: AG10083 (antibody, human IgG4 S228P, kappa, V domains shown)
VH: EVQLVESGGGLVQPGGSLRLSCAASGFSLSTSGVGVGWIRQAPGKGLEWIGEIYHSGSTYYSPSLKSRVTISRDNSKNTLYLQLNSLKAEDTAVYYCAREGSDVVTGDWFAYWGQGTLVTVSS
VL: B2 VL with G30S, F32V, G34A, Y91G, V95W
notes: also called IgG of Fab 5323
In experiment [1], B3 yielded a Kd of 12 nM, a koff of 0.0069 s⁻¹ and an association rate constant (kon) of 570000 M⁻¹ s⁻¹.

B4: AG10085 (antibody, human IgG4 S228P, kappa, V domains shown)
VH: EVQLVESGGGLVQPGGSLRLSCAASGFSLSTSGVGVGWIRQAPGKGLEWVSGISGAGDSTYYADSVKGRFTISRDNSKNTLYLQLNSLRAEDTAVYYCAREGSDTVLGDWFAYWGQGTLVTVSS
VL: DIQLTQSPSSLSASVGDRVTITCRASQDIRSYLAWYQQKPGKAPKLLIYDASNRATGIPSRFSGSGSGTDFTLTISSLQPEDFATYYCQQGYSIWTFGQGTKVEIKR
notes: also called IgG of Fab 5367
For the molecule B4, in experiment [1], the Kd stood at 54 nM, the koff was 0.0079 s⁻¹ and the kon amounted to 150000 M⁻¹ s⁻¹.

B5: AG10124 (antibody, human IgG4 S228P, kappa, V domains shown)
VH: B4 VH with S32G, G37A, G52S, A56Y, D58S, S59T, T105A, A112G
VL: B4 VL with R24Q, R30T, S31T, S93Y, I94L
notes: also called IgG of Fab 5302
In experiment [1], B5 showed a Kd of 6 nM, a koff of 0.003 s⁻¹ and an association rate constant (kon) of 500000 M⁻¹ s⁻¹.

B6: AG10129 (antibody, human IgG4 S228P, kappa, V domains shown)
VH: EVQLVESGGGLVQPGGSLRLSCAASGFTFSSYWIHWVRQAPGKGLEWVSVISGDGDTTYYADSVKGRFTISRDNSKNTLYLQLNSLRAEDTAVYYCARSRGLVLDAFDYWGQGTLVTVSS
VL: DIQLTQSPSSLSASVGDRVTITCRASQSVSGRFLAWYQQKPGKAPKLLIYDASSLESGVPSRFSGSGSGTDFTLTISSLQPEDFATYYCQQYDYWPPYTFGQGTKVEIKR
notes: also called IgG of Fab 5353
For B6, in experiment [1], the Kd was determined as 19 nM, the koff came out at 0.006 s⁻¹ and the kon was determined as 310000 M⁻¹ s⁻¹.

B7: AC1097 (antibody, V domains shown)
VH: EVQLVQSGAEVKKPGESLRISCKGSGYSFSTYWISWVRQMPGKGLEWMGKIYPGDSYTNYSPSFQGQVTISADKSISTAYLQWSSLKASDTAMYYCARGYGIFDYWGQGTLVTVSS
VL: SYELTQPPSVSVSPGQTASITCSGDNIGDQYAHWYQQKPGQSPVLVIYQDKNRPSGIPERFSGSNSGNTATLTISGTQAMDEADYYCATYTGFGSLAVFGGGTKLTVL
Take B7: the binding result in experiment [2] is given as “no binding”; in experiment [3] it was “no binding”; in experiment [5], “no binding (tested: 100 nM (text paragraph 220))”. Further, the figures for the “% in upper right quadrant” value (in experiment [4]; with Hu_CRD3; in experiment [6]) were 0.59%, 0.22% and 0.005%, respectively. The Mean in experiment [4] amounted to 16200; in the experiment with Hu_CRD3, 12700.
